Assay results as given in patent publication US20180335429.

Target: T1, MMP substrate, 5-FAM-GGPLGVRGKK(CPQ2)-PEG2-C, presented on the iron-oxide nanoparticle (ABN) surface (not fully specified)
T1 chain: GGPLGVRGKKC

B1: mouse MMP9 (protein)
chain: APYQRQPTFVVFPKDLKTSNLTDTQLAEAYLYRYGYTRAAQMMGEKQSLRPALLMLQKQLSLPQTGELDSQTLKAIRTPRCGVPDVGRFQTFKGLKWDHHNITYWIQNYSEDLPRDMIDDAFARAFAVWGEVAPLTFTRVYGPEADIVIQFGVAEHGDGYPFDGKDGLLAHAFPPGAGVQGDAHFDDDELWSLGKGVVIPTYYGNSNGAPCHFPFTFEGRSYSACTTDGRNDGTPWCSTTADYDKDGKFGFCPSERLYTEHGNGEGKPCVFPFIFEGRSYSACTTKGRSDGYRWCATTANYDQDKLYGFCPTRVDATVVGGNSAGELCVFPFVFLGKQYSSCTSDGRRDGRLWCATTSNFDTDKKWGFCPDQGYSLFLVAAHEFGHALGLDHSSVPEALMYPLYSYLEGFPLNKDDIDGIQYLYGRGSKPDPRPPATTTTEPQPTAPPTMCPTIPPTAYPTVGPTVGPTGAPSPGPTSSPSPGPTGAPSPGPTAPPTAGSSEASTESLSPADNPCNVDVFDAIAEIQGALHFFKDGWYWKFLNHRGSPLQGPFLTARTWPALPATLDSAFEDPQTKRVFFFSGRQMWVYTGKTVLGPRSLDKLGLGPEVTHVSGLLPRRLGKALLFSKGRVWRFDLKSQKVDPQSVIRVDKEFSGVPWNSHDIFQYQDKAYFCHGKFFWRVSFQNEVNKVDHEVNQVDDVGYVTYDLLQCP
Q: For B1, which “cleavage of the substrate” value is on record?
A: The value was “it was confirmed that mouse MMP9 cleaves the ABN MMP9 substrate”.
